According to PMC3376891 (Cell, 2012):

How the values were obtained:
[1] = Far-UV CD spectroscopy of peptides; format: physicochemical; details: aqueous solution / buffer (Figure S2D)
[2] = salt-free buffer; ref Bowie and Sauer, 1989; cited from earlier work

Row | Substance | Secondary structure by far-UV CD [1] | Unfolding behavior of Arc upon dilution [2]
1 | neuropeptide Y [Pep1] | α helix | 
2 | Arc: 55 aa Arc repressor, a client protein of both chaperones (MKGMSKMPQFNLRWPREVLDLVRKVAEENGRSVNSEIYQRVMESFKKEGRIGA; UniProt P03050 1-53, looked up) |  | rapidly dissociate and slowly unfold upon dilution into salt-free buffer without forming aggregates
